# According to publication PMC8376421:
# Target: recombinant hACE2-AviTag protein (human) (UniProt Q9BYF1)
# Experiment: SPR
# Chain of UniProt Q9BYF1 (Q9BYF1 18-740): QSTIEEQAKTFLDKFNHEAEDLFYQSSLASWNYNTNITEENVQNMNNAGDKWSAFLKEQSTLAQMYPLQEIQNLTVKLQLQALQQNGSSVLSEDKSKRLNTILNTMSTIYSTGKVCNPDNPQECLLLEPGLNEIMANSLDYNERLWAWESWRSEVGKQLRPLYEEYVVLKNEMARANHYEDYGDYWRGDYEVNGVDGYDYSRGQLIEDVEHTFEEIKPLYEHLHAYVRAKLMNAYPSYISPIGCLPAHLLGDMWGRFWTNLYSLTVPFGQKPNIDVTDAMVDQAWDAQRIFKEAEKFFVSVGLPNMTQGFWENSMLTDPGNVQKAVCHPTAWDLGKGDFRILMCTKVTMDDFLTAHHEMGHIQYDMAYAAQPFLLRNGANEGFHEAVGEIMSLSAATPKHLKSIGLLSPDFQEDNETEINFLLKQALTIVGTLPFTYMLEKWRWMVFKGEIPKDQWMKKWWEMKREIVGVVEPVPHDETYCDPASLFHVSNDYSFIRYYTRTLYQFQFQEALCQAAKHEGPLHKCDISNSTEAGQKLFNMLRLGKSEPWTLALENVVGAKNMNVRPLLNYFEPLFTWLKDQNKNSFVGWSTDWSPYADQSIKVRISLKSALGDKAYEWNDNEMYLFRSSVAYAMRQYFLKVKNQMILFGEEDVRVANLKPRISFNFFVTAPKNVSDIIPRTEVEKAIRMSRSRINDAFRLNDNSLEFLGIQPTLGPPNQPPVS
substance,measurement,value
SARS-CoV-2 spike RBD-MBP fusion protein (domain or fragment),Kd,19 nM
